US20230212549A1, “COMPOUNDS COMPRISING A […] LIGAND AND USE THEREOF” (priority 2021, published 2023)
Numbered stars: 1 amine (or outer) side, 2 acyl side, 3 side chain; on linkers, the order of the positions; unused ones are H or OH. Bridge positions count the residues as written; N and C are the ends. Square brackets hold non-standard residues; d marks the D form. Primed or numbered codes have the meaning given here. * marks the point of attachment. Ttds″ = 1,13-diamino-4,7,10-trioxatridecan-succinamic acid spacer, O=C(CCC(=O)[*:2])NCCCOCCOCCOCCCN[*:1]; N4Ac = 6-Carboxy-1,4,8,11-tetraazaundecane, an N4-chelator, NCCNCC(CNCCN)C(=O)*; mXylylene = c1cc(C[*:1])cc(C[*:2])c1; 4Pal = N[C@@H](Cc1ccncc1)C(=O)O; Nle = CCCC[C@H](N)C(=O)O; Hexanoyl = CCCCCC(=O)*

Legend:
[1] = biological target: fibroblast activation protein (FAP) on FAP-expressing human WI-38 fibroblasts (human), Q12884; test: competitive FACS, WI-38 cells, vs Cy5 tracer m3; A = pIC50 >8.0; conditions: remark: other sources report otherwise
Cathepsin F = biological target: T1, Cathepsin F (UniProt Q9UBX1); test: cell-based or functional assay
T1 sequence (looked up): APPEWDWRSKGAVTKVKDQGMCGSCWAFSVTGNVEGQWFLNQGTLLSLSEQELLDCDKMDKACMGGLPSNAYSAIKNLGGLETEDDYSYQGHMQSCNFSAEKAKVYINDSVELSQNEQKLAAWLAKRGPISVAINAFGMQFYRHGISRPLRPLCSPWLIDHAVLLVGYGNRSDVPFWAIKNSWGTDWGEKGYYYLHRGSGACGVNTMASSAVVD

[2] = biological target: human fibroblast activation protein (FAP) on WI-38 fibroblasts (human) (UniProt Q12884); test: competitive FACS, WI-38 cells, Cy5-labeled peptide as competitor; C = pIC50 6.1 to 7.0

B1: Hex-[Cys(3MeBn)-Pro-Pro-Thr-Glu-Phe-Cys]-Asp-NH2 (peptide)
peptide: Hexanoyl-CPPTEFCD-NH2
modifications: linker 1-7 via mXylylene
SMILES: CCCCCC(=O)N[C@H]1CSCc2cccc(c2)CSC[C@@H](C(=O)N[C@@H](CC(=O)O)C(N)=O)NC(=O)[C@H](Cc2ccccc2)NC(=O)[C@H](CCC(=O)O)NC(=O)[C@H]([C@@H](C)O)NC(=O)[C@@H]2CCCN2C(=O)[C@@H]2CCCN2C1=O
With B1 the pIC50 Category (FACS) [1] was > 8 pIC50.

B2: Cystatin C (protein, UniProt P01034 27-146, looked up)
chain: SSPGKPPRLVGGPMDASVEEEGVRRALDFAVGEYNKASNDMYHSRALQVVRARKQIVAGVNYFLDVELGRTTCTKTQPNLDNCPFHDQPHLKRKAFCSFQIYAVPWQGTMTLSKSTCQDA
Binder B2 has a Percentage inhibition (%), reference at 1 µM (Cathepsin F) of 74%.

B3: N4Ac-Ttds-Nle-[Cys-(3MeBn)-Pro-Pro-Thr-Glu-Ppa-Cys]-OH (peptide)
peptide: N4Ac-[Ttds″][Nle]CPPTE[4Pal]C-OH
modifications: linker 3-9 via mXylylene
SMILES: CCCC[C@H](NC(=O)CCC(=O)NCCCOCCOCCOCCCNC(=O)C(CNCCN)CNCCN)C(=O)N[C@H]1CSCc2cccc(c2)CSC[C@@H](C(=O)O)NC(=O)[C@H](Cc2ccncc2)NC(=O)[C@H](CCC(=O)O)NC(=O)[C@H]([C@@H](C)O)NC(=O)[C@@H]2CCCN2C(=O)[C@@H]2CCCN2C1=O
For B3, the pIC50 [2] was 6.1 to 7 pic50.
